Our source for the activity values is US5929223.

The target in the series is T1, dCREB2-a (Drosophila melanogaster) (UniProt Q9VWW0).
T1 sequence: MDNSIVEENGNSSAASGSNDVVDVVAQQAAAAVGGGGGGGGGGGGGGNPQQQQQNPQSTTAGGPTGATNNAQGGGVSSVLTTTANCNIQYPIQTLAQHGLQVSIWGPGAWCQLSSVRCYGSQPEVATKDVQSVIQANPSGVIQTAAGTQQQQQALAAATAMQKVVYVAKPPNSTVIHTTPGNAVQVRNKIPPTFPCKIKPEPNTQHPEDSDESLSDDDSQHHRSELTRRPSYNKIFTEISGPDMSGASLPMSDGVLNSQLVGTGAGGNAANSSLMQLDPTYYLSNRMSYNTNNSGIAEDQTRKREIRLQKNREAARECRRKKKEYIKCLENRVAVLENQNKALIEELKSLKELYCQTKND
In words: cell_activity. To be noted: F9 cells, with PKA, relative to PKA alone.

For “D(-71) CAT somatostatin promoter CRE fragment”, the activity worked out at 5.4 fold.
